Data reported in the RNAGym collection of RNA variant scans (doi:10.7554/elife.80360).

B1: Hairpin Ribozyme (parent)
chain: GUCCUCUUUCACGUGCGCGUGAAAGAGAGAAGUGAACCAGAGAAACACACGUUGUGGUAUAUUACCUGGUA

Variants of: B1
Assay: self-cleavage, relative activity (ratio to wild type); higher = more cleavage; co-transcriptional

Point of comparison: G32U U33C, self-cleavage 0.222. Against it:
- U33C U60C — lower, 0.128
- G34A C66U — higher, 0.609
- G34A C66G — lower, 0.184
- U33G U62C — lower, 0.0629
- U33C G54U — lower, 0.141
- U33C G54C — lower, 0.163
- U33C G54A — lower, 0.0427
- G34A A49U — lower, 0.174
- G34C A36G — higher, 1.24
- U33C C38G — lower, 0.123
- U33C A47U — lower, 0.0811
- G34A A43C — higher, 0.229
- G34A C65A — higher, 1.26
- G34A G42A — higher, 0.356
- G34A G42C — higher, 0.516
- G34A G56C — lower, 0.13
- G34A G56U — lower, 0.128
- U33C A71U — lower, 0.144
- U33C A59U — lower, 0.128
- U33C A59G — lower, 0.083
- U33C A59C — lower, 0.198
- U33A G54C — lower, 0.128
- G32U U55A — lower, 0.0859
- G34A U52C — higher, 0.857
- U33A U58C — lower, 0.0877
- U33A U62A — lower, 0.148
- U33A U62G — lower, 0.174
- U33C C46G — lower, 0.187
- U33C C46U — lower, 0.0782
- G32U U63A — lower, 0.172
- U33G A49U — lower, 0.218
- U33A U53C — higher, 0.264
- U33A U53G — lower, 0.0866
- U33A U53A — lower, 0.103
- G34A G54U — higher, 0.719
- G34A C46G — lower, 0.159
- U33A C66G — lower, 0.101
- U33A A39C — lower, 0.105
- U33A G57U — lower, 0.13
- U33G A64C — lower, 0.0723
- U33C A64U — lower, 0.154
- U33A A41G — lower, 0.0913
- U33A A41C — lower, 0.0532
- U33C C37G — lower, 0.0717
- G32U G56A — lower, 0.117
- U33G U63A — lower, 0.126
- U33G U63C — lower, 0.217
- G34A G40C — lower, 0.174
- U33A A35U — lower, 0.131
- U33A A35G — lower, 0.17
- G34A G57C — higher, 0.247
- G34A G57U — higher, 0.461
- G34C A39G — higher, 1.03
- G34C A39U — higher, 1.02
- G34A U60A — higher, 1.13
- G34A U60C — higher, 1.5
- G32U G69U — lower, 0.0924
- U33C C66G — lower, 0.112
- U33C A39C — lower, 0.171
- U33A C37U — lower, 0.109
- U33A C37G — lower, 0.182
- U33G U52G — lower, 0.0362
- U33G A35C — higher, 0.333
- U33G A35U — lower, 0.16
- U33G A36C — lower, 0.0918
- G32U U52C — lower, 0.144
- G34A C38A — higher, 0.267
- G34A C38G — lower, 0.195
- U33G U70A — lower, 0.121
- U33A G40A — lower, 0.108
- U33A G40U — lower, 0.126
- U33G G69C — lower, 0.038
- U33A U60A — lower, 0.0246
- U33A A47U — lower, 0.127
- U33A A47G — lower, 0.0897
- G34A G68C — higher, 0.283
- G34A G68A — higher, 0.246
- U33G G42A — lower, 0.0778
- G34A A61C — higher, 0.336
- U33G C65A — lower, 0.189
- U33G C65U — lower, 0.0212
- U33A A43C — lower, 0.219
- U33A A43U — lower, 0.115
- U33C G40C — lower, 0.0896
- U33A U55G — lower, 0.0798
- G34A C37G — higher, 0.519
- G34A U55A — higher, 0.518
- G34A U55G — higher, 0.541
- G32U U67A — lower, 0.171
- G32U U67G — lower, 0.121
- U33C A49U — lower, 0.127
- U33C A49C — lower, 0.148
- G34C — higher, 1.4
- G34A — higher, 1.21
- U33G C48A — lower, 0.158
- U33C U52C — lower, 0.177
- U33C G42U — lower, 0.115
- U33C G42C — lower, 0.0894
- U33G U60C — lower, 0.195
- U33A G34U — lower, 0.134
- U33C U55C — lower, 0.173
- U33G A47G — lower, 0.0744
- U33G A47U — lower, 0.105
- U33G G68C — lower, 0.0688
- G34A A45U — lower, 0.0941
- G34A A45G — higher, 0.435
- U33G U58A — lower, 0.0636
- G34A U70A — higher, 1.14
- G34A A41G — higher, 1.3
- U33A C38A — lower, 0.13
- U33A C38G — lower, 0.128
- U33A C50G — lower, 0.211
- U33G G56C — lower, 0.0919
- U33G G56U — higher, 0.244
- U33G A44C — lower, 0.0874
- U33G A44G — lower, 0.0996
- U33G A44U — higher, 0.23
- U33G G34A — higher, 0.317
- U33A A49C — lower, 0.163
- G34A C50A — higher, 0.312
- U33A U67G — lower, 0.169
- G32U U58G — lower, 0.137
- U33A A61C — lower, 0.127
- G32U U53G — lower, 0.103
- G32U U53C — higher, 0.253
- U33G C66A — lower, 0.0596
- U33G C66G — lower, 0.0993
- U33G C38G — lower, 0.128
- U33G C38U — lower, 0.204
- U33G C38A — lower, 0.139
- U33G A41U — higher, 0.251
- U33G A41C — lower, 0.156
- U33C A41C — lower, 0.114
- U33C C50U — lower, 0.0772
- U33C C50G — lower, 0.0836
- U33C U62C — lower, 0.0427
- U33C U62G — lower, 0.0931
- U33C U62A — higher, 0.278
- U33C U58G — lower, 0.0694
- U33C U58A — lower, 0.0907
- G32U U33A — lower, 0.148
- U33A A36G — lower, 0.202
- G32U U62G — lower, 0.182
- G34A U58C — higher, 1.11
- G34A U62G — higher, 0.347
- G34A U62C — higher, 0.38
- U33C G34U — higher, 0.348
- G34A A44G — higher, 0.259
- G34A A44C — higher, 0.223
- G34A G51U — higher, 1.28
- U33A A64C — lower, 0.143
- U33A A64U — lower, 0.21
- G34A A36C — higher, 0.956
- U33C U63G — lower, 0.0654
- U33C G57C — lower, 0.0819
- G34A A59C — lower, 0.148
- G34A A59U — lower, 0.203
- G34A U63G — lower, 0.157
- G34A U63A — higher, 0.259
- U33G A59U — lower, 0
- U33G A59G — lower, 0.204
- G34A A64C — higher, 0.349
- G34A A71G — higher, 1.41
- U33G A45U — lower, 0.0465
- U33C U53G — higher, 0.299
- U33C U70A — lower, 0.0822
